The data set deals with the molecule itself. Description: single-molecule photobleaching step counting on DNA tightropes.

B1: cJun bZIP region fused to mNeonGreen (domain or fragment)
chain: RIKAERKRMRNRIAASKCRKRKLERIARLEEKVKTLKAQNSELASTANMLREQVAQLKQKVMNH
Broadly, the stoichiometry N is the number of molecules, sites or subunits per partner or assembly. In the case of B1, the “stoichiometry N” value is 2.

For the origin of these results see doi:10.1101/2020.01.24.918300 (bioRxiv, 2020).
